Test results: patent US20190144517A1 (SHANGHAI JW INFLINHIX, published 2019)

Molecular target: T1, TNF receptors on L929 cells (mouse, UniProt P25118 30-454)
T1 construct: whole, on cells; The result text says 'TNF receptors'; the staining used an anti-TNFR1 antibody; also called cell surface receptors; TNFR1
T1 sequence (looked up): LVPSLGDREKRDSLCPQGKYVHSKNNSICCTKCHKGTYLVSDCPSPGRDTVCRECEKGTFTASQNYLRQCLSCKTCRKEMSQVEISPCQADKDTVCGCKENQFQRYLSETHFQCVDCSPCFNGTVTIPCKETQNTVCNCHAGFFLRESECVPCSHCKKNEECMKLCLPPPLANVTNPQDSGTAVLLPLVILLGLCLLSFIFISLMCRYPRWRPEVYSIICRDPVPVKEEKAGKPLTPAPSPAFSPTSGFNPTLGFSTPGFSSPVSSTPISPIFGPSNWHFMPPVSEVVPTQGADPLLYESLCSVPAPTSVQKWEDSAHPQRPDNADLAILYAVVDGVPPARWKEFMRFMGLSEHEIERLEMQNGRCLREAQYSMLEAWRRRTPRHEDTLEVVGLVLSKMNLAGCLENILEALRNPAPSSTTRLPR
Experiment: confocal immunofluorescence on L929 cells
Procedure: The cells were fixed with 4% paraformaldehyde (PBS formulation) were for 10 minutes, blocked with phosphate buffer containing 0.5% BSA and 0.1% cold water fish gelatin for 15 minutes, and then incubated with rabbit anti-TNFR1 antibody (Abeam) for 1 hour. The cells were washed with PBS and then incubated with the relevant secondary antibody coupled to Alexa Fluor 488 or Alexa Fluor 568 (Invitrogen). Then the sample washed with PBS was mounted with Gelvatol/DABCO (Sigma-Aldrich). DNA was counterstained with DAPI (Sigma-Aldrich). All samples were analyzed by fluorescence microscopy at 60× using Nikon Eclipse 80i. Images were taken with NIS-Elements AR3.0 software using Hamamatsu camera.

B1: monoclonal antibody 244-12 (antibody, mouse IgG2b, kappa, V domains shown)
VH: QIQLVQSGPELKKPGETVKISCKASGYTFTNYGMNWVKQAPGKGLKWMGWINTYTGEPTYADDFKGRFAFSLETSANTAYLQINNLRNEGMATYFCARHYRYAWFPYWGQGTLVTVSA
VL: DIQMTQSPASLSASVGETVTITCRASGNIHIYLAWYQQKQGKSPQLLVYNAKTLADGVPSRFSGSGSGTQYSLKINSLQPEDFGSYYCQHFWSIPWTFGGGTKLEIKR
notes: It was detected with an anti-mouse IgG secondary antibody
B1: no binding (tested: 2 µg/ml).
